Assay: soluble on expression in E. coli; label from the status in PepcDB or PDB records
With “MGSDKIHHHHHHMRFSRIPPIFANVVRQTHYRNYANGVIKPREFNKVMVANRGEIAIRVFRALTELNKTSVAIYAEQDKNSMHRLKADEAYLVGKGLPPVAAYLTIDQIIETALKHNIDAIHPGYGFLSERSDFAAACQNAGIVFIGPSPDVMARMGDKVAARQAAIEAGVQVVPGTPGPITTADEAVEFAKQYGTPIILKAAYGGGGRGIRRVDKLEEVEEAFRRSYSEAQAAFGDGSLFVEKFVERPRHIEVQLLGDHHGNIVHLYERDCSVQRRHQKVVEIAPAPALPEGVREKILADALRLARHVGYQNAGTVEFLVDQKGNYYFIEVNARLQVEHTVTEEITGVDLVQAQIRIAEGKSLDDLKLSQETIQTTGSAIQCRVTTEDPAKGFQPDSGRIEVFRSGEGMGIRLDSASAFAGSVISPHYDSLMVKVIASARNHPNAAAKMIRALKKFRIRGVKTNIPFLLNVLRQPSFLDASVDTYFIDEHPELFQFKPSQNRAQKLLNYLGEVKVNGPTTPLATDLKPAVVSPPIPYIPAGAKPPTGLRDVLVQRGPTEFAKEVRSRPGCMITDTTFRDAHQSLLATRVRTYDMAAISPFVAQSFNGLFSLENWGGATFDVSMRFLHECPWERLQTLRKLIPNIPFQCLLRGANAMGYSNYPDNVIYKFCELAVKNGMDVFRVFDSLNYLPNLLVGMEAVGKAGGVVEAAIAYTGDVTDKSRDKYDLKYYLNLADQLVKAQAHILSIKDMAGVLKPEAAKLLIGALRDKFPDIPIHVHTHDTSGAGVAAMLECAKAGADVVDAAVDSMSGMTSQPSMGAIVASLQGTKHDTGLSLDDISKYSAYWESTRQLYAPFECATTMKSGNADVYKHEIPGGQYTNLQFQAFSLGLGPQFDEVKRMYREANLVLGDIIKVTPSSKIVGDLAQFMVQNNLTRETLVDRADDLSFPKSVVDFMQGNVGQPPYGFPEPLRTKVLRGKPKVDGRPGENAKPVDLDAVKVELEEKHGRTLSEEDVMSYSMFPTVFDEFETFRQQYGPVDKLPTRLFLTGLEIAEEVDVEIESGKTLAIQLLAEGKLNKRGEREVFFDLNGQMRSIFVVDKEASKEIVTRPRALPGVRGHIGAPMPGDVLELKIKEGDKVTKKQPLFVLSAMKMEMVIDSPIAGTVKAIHAPQGTKCSAGDLVVEVEP” the “soluble on expression in E. coli” value was “not soluble”. In the case of “MGSDKIHHHHHHMRGGNIKAIVYLPLDPEKAKQNNLPVKLPVLAEDLPKVLEEDRIPLDVILRGLEAQYEITKDEYYRSYYVFFLYEKFKQLLREGKLDEAEKILEKAKEVQYDYRYHFYRGLLLKHRGELGEAEIEMRLAISMNDRFAPAYFELAGILKEKNEIEDSLLFYEKAYEVNKEFLLPLLKKGDLLLEEGRLEEAIEEYRRILEKDSNFVEVYERLGVIYNQLQRFKEAEKFFKKALEIERKDHVEYNLSYTLIKLGKLFEALEILKRLYEKNPDDPMVANEYGLLLKTLGLYEEALEVFEDAYRRHKEEEILKYNYGTILLHFEKEKAVSILSEISGELKDRAEFMISLAEKDVVIPSYEEFEWLKDYFFEGTIDVVALSEEIDSEDEDAKRRIERLREGEFPFYDTTLDSSEMLEVILGIMFESPDIFKMEENAVKFVSAFYGSSVMIASTIVLTRTFQYFLAEEEPTMEELLRELVAETQDVNWKFSLRLARFRHADRFDFNRLSDLVIAFLQSIEQGTPVSDDERLKYLLEKLTFQKEG”, the “soluble on expression in E. coli” value is reported as “not soluble”. In the case of “MGSDKIHHHHHHMRIAQVAPLWERVPPPAYGGIELVVGLLTDELVRRGHEVTLFASGDSISLANLVSVHPRALRLDSSVKEYGIYEMLQLSTVYERADEFDIIHSHMGCASLPYTKLVKTPTVHTLHGIFTPDNEKMFRYAKTEPFVSISDAQRDLRLGLNYVGTVYNGIDVNSYKFYPQPDEPPYLAFLGRISPEKGTHLAIEIAKKSGWHLKIAGKVDVVDVEYFEKEIKPLIDGKQIEYLGEADHTQKNVLMGGAVATLFPITWREPFGLVMVESMASGTPVIAMNLGSTTEVIAHGKTGFLCSNVEECVSAIAKVADLDRYTCREYVQNRFSLQAMTEGYEEVYRQILQQRFANNGHHRSTVALSKV”, the “soluble on expression in E. coli” value is reported as “not soluble”. For “MGSDKIHHHHHHMRILGIETSCDETGVAIYDEQRGLIANQLYSQIEMHADYGGVVPELASRDHIRKTLPLIQAALKEANLTASEIDGIAYTAGPGLVGALLVGATIARALAYAWNVPALAVHHMEGHLMAPMLEENPPEFPFIALLISGGHTQLIKVAGVGEYEILGESIDDAAGEAFDKTGKLLGLDYPAGVALSQLAEKGTPNRFVFPRPMTDRPGLDFSFSGLKTFAANTINAQLDENGQLNEQTRCDIAHAFQQAVVDTIIIKCKRALQQTGYSRLVMAGGVSANKQLRAELATMMQALKGQVYYPRPQFCTDNGAMIAYTGFIRLKKGEKTDLSVSVKPRWPMTTLLKLSAHHKV”, the “soluble on expression in E. coli” value was “not soluble”. In the case of “MGSDKIHHHHHHMRILSGMRPTGKLHIGHLVGALENWVKLQEEGNECFYFVADWHALTTHYDDVSKLKEYTRDLVRGFLACGIDPEKSVIFVQSGVKEHAELALLFSMIVSVSRLERVPTYKEIKSELNYKDLSTAGFLIYPVLQAADILIYKAEGVPVGEDQVYHIELTREIARRFNYLYDEVFPEPEAILSRVPKLPGTDGRKMSKSYGNIINLEISEKELEQTILRMMTDPARVRRSDPGNPENCPVWKYHQAFDISEEESKWVWEGCTTASIGCVDCKKLLLKNMKRKLAPIWENFRKIDEDPHYVDDVIMEGTKKAREVAAKTMEEVRRAMNLMF”, the “soluble on expression in E. coli” value is reported as “soluble”. With “MGSDKIHHHHHHMRKISVFDTTLRDGEQSAGVNLNFEEKMEIAKQLERLGVDIIEAGFPASSQGDFQSVKAIAETVKGSSVTGLARSVQKDIDAAWEALKSAEEPRIHLFIATSPIHMEHKLRMTPEQVIEKAVESVKYAASRFKHVQWSAEDASRSDFPFLAQIIEAVIQAGATVINLPDTVGYTTPQEIKRMFQYMKQNVPSIDKVSLSTHNHDDLGMAVANSLAAIQGGADQVECTINGIGERAGNASLEEIAVALNIRKDHYETETGLILKEIKRTSSLVSKLTGMVVPNNKAVVGANAFAHESGIHQDGVLKNKQTYEIITPEMVGVSSNSMVLGKHSGRHAFKTKVQELGFTGTDEQLNNIFKAFKDLADKKKEITEDDLFALMTEQTVGGETNHYELQTLQVNYGSNLTNTATITMKLPSGEVAEEAATGSGSVEAIYNTLERLLDAPVKLLDYRIQSITGGRDALADVYVQMDYQGVVSSGRGTAHDVLEASAKAYLNAVNRTINRKKYAEVYGSKVEV” the “soluble on expression in E. coli” value was “not soluble”. For “MGSDKIHHHHHHMRKKLISILVDGVSADTFEKHAHRLPNMRHLAERGLRVRRLKSAVPATSVPGRATMLTGVGPETHGIYGNHIFRGDASVAPLAEDLLVPTIATHARQAGLDVAAIGQALVNPRDTSVYVSPWWLRGFMTGYRFSKMVTPEALAASRAIHDPEDRLAKAGLTEMDAFRDAADGGAPHLISGLALDQFLNRAVVALLGSDRPPDLLLTEIEMPDAFQHYLGYDSPAGIWSVEFADMLIGNLLAVLERTGRREDYVIAVASDHGHGFVDTAIFPEAIIPDMHWMTEGASLYVSLKAAGDLERVTERLLPYGVELWNDHHVPENLRGTVAMFVAPPRHSFEERPSDASGPLVATGSPHLISTHGFRPGSPEDDRMFILSGGGIAPKVIKAADADQFAPTLASVLGLPLEPYAGRSLIAEESPIARSPQSLELHLK”, the “soluble on expression in E. coli” value was “not soluble”. In the case of “MGSDKIHHHHHHMRKLGFVLFVLITAVMTAQEEPLVSNIFQDTYILDALADISAQTGIPIIADTTVTGFITMELNEVPLEQALKMILMPGGYVFKKMDGFYLVGSPDPANPAFRYLAVTKTYKLKYITTADAQELLPAVYKSYVKFNEKNNMVTITAPEEIIQEFEEDLKKIDIPIPQVKISVIVTEVSKDYSNELGLNSLDYSFGSGQEFNENWSATLGLVTGIIDVQTDVFGQILAQLKLLEEDQKAKITADPWIIVKSGEKASLFLGERQVVLLQAEGAVSRIESIDVGVSIDIQPRVMDKEELELTLSPKVSHFAGEKLGTFAVKQNELSTTLFLKNGQTVVISGATIEDSAQTSSGVPILNKIPLIRYLFGGTTKKDSQKELYIFIKAEIQGSE”, the “soluble on expression in E. coli” value is reported as “not soluble”. With “MGSDKIHHHHHHMRKLISIILLLLTININSQIVELRPVKVPAEHAEYFETIHTEYSIKTAQDAKDKGKLYGWWVAKRLNTNEDDFNYLFITVHPSVESLIDNEYWWQNSEEVTGYKPEILYKMADLFEFDKQYIYQVEMQIPDAAEAKYIIINFATPDDLNTVLKESKEIVMPHFQKNLIKSGMVGWGVATKITPQGSNYSSFSTWDSYDSLENMMKHLGGGAAIEGLPLNKLTPIEWSMRPIFRVITGTK” the “soluble on expression in E. coli” value was “not soluble”.

Source: the DeepSol protein solubility set
